Results from article PMC5008402.

What was measured:
phospho-specific blot = settings: glycan lost; control: WT TAB3
[1] = Flag IP, pThr404 TAB3 blot; settings: glycan lost; control: WT TAB3, IL-1β treated

B1: TAK1 binding protein 3 (TAB3): S408A (protein)
parent chain: MAQSSPQLDIQVLHDLRQRFPEIPEGVVSQCMLQNNNNLEACCRALSQESSKYLYMEYHSPDDNRMNRNRLLHINLGIHSPSSYHPGDGAQLNGGRTLVHSSSDGHIDPQHAAGKQLICLVQEPHSAPAVVAATPNYNPFFMNEQNRSAATPPSQPPQQPSSMQTGMNPSAMQGPSPPPPPPSYMHIPRYSTNPITVTVSQNLPSGQTVPRALQILPQIPSNLYGSPGSIYIRQTSQSSSGRQTPQSTPWQSSPQGPVPHYSQRPLPVYPHQQNYQPSQYSPKQQQIPQSAYHSPPPSQCPSPFSSPQHQVQPSQLGHIFMPPSPSTTPPHPYQQGPPSYQKQGSHSVAYLPYTASSLSKGSMKKIEITVEPSQRPGTAINRSPSPISNQPSPRNQHSLYTATTPPSSSPSRGISSQPKPPFSVNPVYITYTQPTGPSCTPSPSPRVIPNPTTVFKITVGRATTENLLNLVDQEERSAAPEPIQPISVIPGSGGEKGSHKYQRSSSSGSDDYAYTQALLLHQRARMERLAKQLKLEKEELERLKSEVNGMEHDLMQRRLRRVSCTTAIPTPEEMTRLRSMNRQLQINVDCTLKEVDLLQSRGNFDPKAMNNFYDNIEPGPVVPPKPSKKDSSDPCTIERKARRISVTSKVQADIHDTQAAAADEHRTGSTQSPRTQPRDEDYEGAPWNCDSCTFLNHPALNRCEQCEMPRYT
phospho-specific blot
  other: TAB3 S60 and S506 phosphorylation: no change
[1]
  other: TAB3 Thr404 phosphorylation: decreases
